In US20150150157A1, “PREPHENATE DEHYDROGENASES AND AROGENATE DEHYDROGENASES THAT ARE INSENSITIVE TO EFFECTOR FEEDBACK INHIBITION AND METHODS OF USING THE SAME” (Wisconsin Alumni Research Foundation, priority 2013, published 2015):
Entries after “also recorded” stand apart in the source; their conditions may differ. Like-named read-outs stand apart in the source and are kept apart here.

B1: MtPDH1: Medicago truncatula prephenate dehydrogenase enzyme, recombinant, insensitive to L-Tyr (protein, listed as Medicago truncatula)
chain: MSSSSKSLKIGIVGFGTFGQFLANTMIKQGHTLTATSRTDYSQLCDQMGIHFFRDITAFLDADMDVILLCTSISSLSEVVGSMPLACLKRPTLFVDVLSVKEHPKNLLLKVLPEESDILCTHPMFGPVSGKNGWQNLTFMFDKVRIKDEVTCSKFLQIFASEGCKMVEMSCEEHDKAAAKSQFITHTIGRTLAEMDIKSTPIDTKGFQTLVELKKPVMGCSFDLYSGLFVYNRFARQELENLEHALHKVKEMLVQRIDEGQNPERTES
B2: GmPDH1: soybean prephenate dehydrogenase enzyme, recombinant, insensitive to L-Tyr (protein)
chain: MSTSSSSQSLKIGIVGFGNFGQFLAKTMIKQGHTLTATSRSDYSELCLQMGIHFFRDVSAFLTADIDVIVLCTSILSLSEVVGSMPLTSLKRPTLFVDVLSVKEHPRELLLRELPEDSDILCTHPMFGPQTAKNGWTDHTFMYDKVRIRDEVICSNFIQIFATEGCKMVQMSCEEHDRAAAKSQFITHTIGRTLGEMDIQSTPIDTKGFETLVKLKETMMRNSFDLYSGLFVYNRFARQELENLEHALHKVKETLMIQRTNGEQGHKRTES
modifications: Glycine max
notes: soybean prephenate dehydrogenase enzyme, recombinant, insensitive to L-Tyr
B3: M. tuberculosis PDH: microbial prephenate dehydrogenase from the literature (protein, UniProt O69721 1-323, looked up)
Prephenate dehydrogenase: MTRTVAAPPVCVLGLGLIGGSIMRAAAAAGREVFGYNRSVEGAHGARSDGFDAITDLNQTLTRAAATEALIVLAVPMPALPGMLAHIRKSAPGCPLTDVTSVKCAVLDEVTAAGLQARYVGGHPMTGTAHSGWTAGHGGLFNRAPWVVSVDDHVDPTVWSMVMTLALDCGAMVVPAKSDEHDAAAAAVSHLPHLLAEALAVTAAEVPLAFALAAGSFRDATRVAATAPDLVRAMCEANTGQLAPAADRIIDLLSRARDSLQSHGSIADLADAGHAARTRYDSFPRSDIVTVVIGADKWREQLAAAGRAGGVITSALPSLDSPQ

What was measured:
[1] = Inhibition analysis: effect of L-Trp on PDH activity of purified recombinant enzymes; assay type: biochemical; conditions: purified recombinant enzyme
Description: (§1) ADH and PDH reactions using GmPDH1, Glyma11g35760, MtPDH1 and AtADH2 (FIG. 5A) contained 200 mM HEPES (pH 7.3), 50 mM KCl, 10% ethylene glycol, 1 mN4 NADP^+ and 1 mM substrate (L-arogenate or prephenate, respectively). Reactions were started by addition of enzyme and incubated at 37° C. for 15 min in the presence of increasing concentrations of effectors: L-Tyr FIG. 5A), L-Phe, L-Trp and HPP. Tyr was dissolved in basic conditions (0.025 N NaOH) to dissolve at high concentrations (up to 10 mM), though 200 mM HEPES maintained the final reaction pH at 7.6. Tyr sensitivity of purified recombinant GmPDH1 and MtPDH1 was also tested at prephenate concentrations ranging from […] to 59 μM, below the K values for GmPDH1 and MtPDH1, while keeping the L-Tyr concentration constant at 1 mM (FIG. 13). Enzyme activity was measured for the production of reduced cofactor (NADPH) at 340 nm using a spectrophotometer, except for crude soybean extracts, which were analyzed by HPLC after 45 min incubation and reduction to HPLA as described above.

[2] = Inhibition analysis: L-Tyr sensitivity of PDH activity of purified recombinant GmPDH1 and MtPDH1; assay type: biochemical; conditions: for effect of L-Tyr on PDH activity at low (non-saturating) prephenate concentrations: 1 mM L-Tyr, prephenate 15 mM to 59 μM; for effect of L-Tyr on PDH activity at low (non-saturating) prephenate concentrations / PDH activity: 1 mM NADP+; for PDH activity: purified recombinant enzyme, 1 mM prephenate; for inhibition of PDH activity by L-Tyr: up to 10 mM of L-Tyr
Description: as §1

[3] = Kinetic analysis of purified recombinant enzymes, ADH activity; assay type: biochemical; conditions: substrate L-arogenate (ADH activity), 37° C., 0.5 mM NADP+, mean ± s.e.m.
Description: (§2) Kinetic parameters of purified recombinant GmPDH1 and MtPDH1 for ADH activity (Table 3) were determined from assays conducted using varying L-arogenate concentrations (39 μM to 5 mM). Assays were incubated for 15 min with 0.5 mM NADP^+, by placing on ice and quantified by measuring production of NADPH by absorbance at 340 nm. Kinetic parameters of purified recombinant GmPDH1 and MtPDH1 for PDH activity (Table 3) were determined from assays conducted using varying prephenate concentrations (29 μM to 3.5 mM). Assays with 0.5 mM NADP^+ were monitored continuously at 340 nm using a microplate reader (Tecan GENios, Zurich, Switzerland) for 7 min. Kinetic parameters were determined using hyperbolic regression analysis in Hyper (http://homepage.ntlworld.com/john.eastetby/software.html). Enzyme assays were carried out at a protein concentration and reaction time that were in the linear range and proportional to reaction velocity. The final enzyme concentrations of the purified recombinant GmPDH1 and MtPDH1 were 0.9 μg/ml and 0.7 μg/ml for PDH activity and 3.0 μg/ml and 1.4 μg/ml for ADH activity, respectively.

[4] = Inhibition analysis: effect of HPP on PDH activity of purified recombinant enzymes; assay type: biochemical; conditions: purified recombinant enzyme
Description: as §1

[5] = Inhibition analysis: effect of L-Phe on PDH activity of purified recombinant enzymes; assay type: biochemical; conditions: purified recombinant enzyme
Description: as §1

[6] = Substrate and electron acceptor preference of purified recombinant enzymes, ADH activity; assay type: biochemical; conditions: with NADP+ or NAD+, compared with PDH activity
Description: (§3) To test the electron acceptor and substrate preference of purified recombinant enzymes (FIG. 12), we incubated reactions for 15 min with 1.5 mM substrate (L-arogenate or prephenate) and 1 mM cofactor (NAD^+ or NADP^+). Assays were conducted with decreasing enzyme concentrations and stopped by placing on ice, and the production of reduced cofactor, NAD(P)H, was Measured at 340 nm using a spectrophotometer (NanoDrop 2000, Thermo).

[7] = Kinetic analysis of purified recombinant enzymes, PDH activity; assay type: biochemical
Description: as §2

[8] = Substrate and electron acceptor preference of purified recombinant enzymes, PDH activity; assay type: biochemical; conditions: with NADP+ and to a lesser extent NAD+
Description: as §3

[9] = Qualitative HPLC detection of PDH activity in E. coli cell lysates expressing candidate enzymes; assay type: biochemical; conditions: 2 mM prephenate, saturating conditions
Description: ADH and PDH reactions contained 25 mM HEPES (pH 7.5), 50 mM KCl, 10% ethylene glycol, 1 mM NADP (or NAD^+), 2 mM substrate (L-arogenate or prephenate, respectively) unless otherwise noted. Arogenate was prepared by enzymatic conversion from prephenate (Sigma-Aldrich), as previously reported. Reactions were started by addition of enzyme from various sources and incubated at 37′ C. for a given amount of time, as noted below,
HPLC-based methods were used to directly detect the final products of ADH and PDH assays, Tyr and HPP, respectively from crude E. coli extracts (FIG. 3B and FIG. 3C) and crude plant extracts (FIG. 2A and FIG. 6). For HPLC detection of PDH activity, reactions were incubated for 45 min and terminated by addition of NaBH4, which converts the reaction product HPP (which produced multiple peaks; FIG. 6) into hydroxyphenyllactic acid (HPLA), followed by neutralization with 100 μl of 6 N HCl. The conversion and recovery rate was 80±1.5% s.d. which was taken into account for the calculation of specific activity from crude plant extracts (FIG. 2C). HPLA was detected as a single peak (FIG. 2A) after being separated by HPLC (Agilent 1260, Santa Clara, Calif.) equipped with a ZORBA X SB-C18 column (Agitent) using a 6-min isocratic elution at 25% methanol in 0.1% phosphoric acid, followed by a 20-min linear gradient of 25-60% methanol at a flow rate of 1.0 ml/min. HPLA was detected using UV absorbance at 270 nm and quantified by a calibration curve generated from the authentic HPLA standard (Sigma-Aldrich). For HPLC-based detection of ADH activity (FIG. 3B), reactions were incubated for 45 min and terminated by addition of methanol to a final concentration of 66% (v/v). The product, Tyr, was derivatized with OPA and separated on a ZORBAX eclipse-XDB C18 column (Agilent) using a 30-min linear gradient of 20-45% methanol in 0.1% animonium acetate at a flow rate of 0.8 ml/min. Tyr was detected by UV absorption at 336 nm and quantified on the basis of a calibration curve generated by the authentic Tyr standard (Acros, Geel, Belgium).
The crude enzyme extracts were first subjected to PDH and ADH assays using saturating conditions to screen for any detectable PDH and/or ADH activity (FIG. 3B and FIG. 3C). ADH activity was detected from all five candidates. In contrast, PDH activity was detected only in Glyma11a35760 and Glyma18g02650 as well as their closest homolog from Medicago (Mt3g071980) but not in Glyma5g07870, Glyma17g13150 and Glyma14g05990 (FIG. 3C).

[10] = literature values; read-out: Km for prephenate of other plant and microbial PDHs; cited from earlier work
[11] = cofactor NADP+, read-out: apparent Km for prephenate
[12] = substrate prephenate (PDH activity), 37° C., 0.5 mM NADP+, mean ± s.e.m.
[13] = substrate prephenate (PDH activity), 37° C., 0.5 mM NADP+, mean ± s.e.m., read-out: Km

Row | Molecule | effect of L-Trp on PDH activity [1] | effect of L-Tyr on PDH activity at low (non-saturating) prephenate concentrations [2] | PDH activity ([2]; L-Tyr 0 mM) | PDH activity ([2]; L-Tyr 0.01 mM) | PDH activity ([2]; L-Tyr 0.1 mM) | PDH activity ([2]; L-Tyr 1.0 mM) | PDH activity ([2]; L-Tyr 10 mM) | inhibition of PDH activity by L-Tyr [2] | Km [3] | Vmax [3] | kcat [3] | effect of HPP on PDH activity [4] | effect of L-Phe on PDH activity [5] | ADH activity of purified recombinant enzyme [6] | Km [7, 11] | Vmax [7, 12] | kcat [7, 12] | Km [7, 13] | PDH activity of purified recombinant enzyme [8] | PDH activity (qualitative detection) [9] | further results
1 | B1 | did not reduce; also recorded: None of the tested molecules significantly reduced PDH activity | did not affect; also recorded: no effect | 579 ± 28 nKat/mg | 604 ± 22 nKat/mg | 610 ± 7 nKat/mg | 641 ± 19 nKat/mg | 652 ± 56 nKat/mg | not inhibited | 42500 ± 21800 µM | 229 ± 96 nKat mg^−1 | 5.5 ± 3.2 s⁻¹ | did not reduce; also recorded: None of the tested molecules significantly reduced PDH activity | did not reduce; also recorded: None of the tested molecules significantly reduced PDH activity | much weaker ADH activity | 223 µM | 655 ± 73 nKat mg^−1 | 21.8 ± 2.4 s⁻¹ | 223 ± 20 µM | strong PDH activity | detected | Km ([3]; listed as Mt3g071980): 43000 µM; kcat ([7]; substrate prephenate (PDH activity), 37° C., 0.5 mM NADP+, mean ± s.e.m., listed as Mt3g071980): 22 s⁻¹
2 | B2 | did not reduce; also recorded: None of the tested molecules significantly reduced PDH activity | did not affect; also recorded: no effect | 1059 ± 69 nKat/mg | 1064 ± 52 nKat/mg | 1103 ± 55 nKat/mg | 1065 ± 44 nKat/mg | 1152 ± 101 nKat/mg | not inhibited | 17000 µM | 307 ± 56 nKat mg^−1 | 10.1 ± 1.8 s⁻¹ | did not reduce; also recorded: None of the tested molecules significantly reduced PDH activity | did not reduce; also recorded: None of the tested molecules significantly reduced PDH activity | much weaker ADH activity | 127 µM | 800 ± 21 nKat mg^−1 | 26.3 ± 0.7 s⁻¹ | 127 ± 20 µM | strong PDH activity | detected | kcat ([7]; substrate prephenate (PDH activity), 37° C., 0.5 mM NADP+, mean ± s.e.m., listed as Glyma18g02650): 26 s⁻¹
3 | B3 | – | – | – | – | – | – | – | – | – | – | – | – | – | – | – | – | – | – | – | – | Km [10]: 410 µM
